# Data from paper PMC11169542, “A probe for NIR-II imaging and multimodal analysis of early Alzheimer’s disease by targeting CTGF” (Nature Communications, 2024).
# Ends that are not written are not given here.
# T1: recombinant Human CTGF protein (connective tissue growth factor) (human, UniProt P29279 27-349)
# T1 construct: connective tissue growth factor (CTGF), human, recombinant; source: bought: Abcam, Cat#ab283457
# T1 sequence (looked up): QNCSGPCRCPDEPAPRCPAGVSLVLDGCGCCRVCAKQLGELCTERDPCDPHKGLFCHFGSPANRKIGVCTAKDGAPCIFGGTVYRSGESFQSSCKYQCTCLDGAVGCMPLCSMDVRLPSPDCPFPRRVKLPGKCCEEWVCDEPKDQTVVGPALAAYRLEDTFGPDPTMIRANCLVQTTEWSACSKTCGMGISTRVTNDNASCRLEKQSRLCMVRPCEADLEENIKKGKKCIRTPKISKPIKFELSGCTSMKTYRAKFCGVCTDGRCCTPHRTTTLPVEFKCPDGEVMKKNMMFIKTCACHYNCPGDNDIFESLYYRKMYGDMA
# B1: DGC probe (peptide-coated gold nanocluster, Au26DAG8) (other)
# peptide: CDAGRKQKC
# modifications: also: Au26 nanocluster bound via Cys sulfhydryl Au-S bonds, cyclic, ring closure not given here
# notes: DAG peptide, eight copies on one Au26 gold nanocluster; One Au26 gold nanocluster coated by eight DAG peptides (by MALDI-TOF-MS); also called CTGF-targeting peptide-coated gold nanocluster; source: synthesised from DAG peptide and HAuCl4 at 55 °C, purified by ultrafiltration (MWCO 3 kDa)
# B2: cyclic peptide Cys-Asp-Ala-Gly-Arg-Lys-Gln-Lys-Cys (DAG) (peptide)
# peptide: CDAGRKQKC
# modifications: also: cyclic peptide, ring not given here
# notes: CTGF-targeting peptide DAG; also called free DAG; DAG peptide; source: synthetic peptide (solid-phase method, Beijing Scilight Biotechnology LLC, purity 95%)
# Molecular target: T1, recombinant Human CTGF protein …
# Assay: SPR; BIAcore 8K+; recombinant human CTGF immobilised on a CM5 chip by amine coupling; eluent PBS with 0.005% Tween 20; DAG 0.5-16 μM or DGC 0.01-0.16 μM; 25 °C
# Conditions: both partners purified
row,Binder,Kd [µM]
1,B1,0.0219
2,B2,22.3
